Assay results published in the supplement of paper PMC11316812.
± gives the standard deviation of the averaged measurements.

How the values were obtained:
[1] = test system: hTERT-HMEC; assay: percentage of EdU-negative (G0-arrested) nuclei per well, 72 h; higher = more G0 arrest; details: reference: sequence is the full UniProt precursor, the tested protein was the secreted form or ectodomain
[2] = test system: MCF7; assay: as above; details: reference: sequence is the full UniProt precursor, the tested protein was the secreted form or ectodomain
[3] = protein concentration 0.0079375 µM
[4] = protein concentration 0.00885714 µM
[5] = protein concentration 0.0357143 µM
[6] = protein concentration 0.079375 µM
[7] = protein concentration 0.0885714 µM
[8] = protein concentration 0.357143 µM
[9] = protein concentration 0.0225 µM
[10] = protein concentration 0.0111429 µM
[11] = protein concentration 0.111429 µM
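Note: secreted proteins added to cultured cells, EdU pulse at the end, nuclei found by Hoechst imaging, EdU status from nuclear versus surrounding ring intensity ratio, PBS as neutral control.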

MKPPRPVRTCSKVLVLLSLLAIHQTTTAEKNGIDIYSLTVDSRVSSRFAHTVVTSRVVNRANTVQEATFQMELPKKAFITNFSMIIDGMTYPGIIKEKAEAQAQYSAAVAKGKSAGLVKATGRNMEQFQVSVSVAPNAKITFELVYEELLKRRLGVYELLLKVRPQQLVKHLQMDIHIFEPQGISFLETESTFMTNQLVDALTTWQNKTKAHIRFKPTLSQQQKSPEQQETVLDGNLIIRYDVDRAISGGSIQIENGYFVHYFAPEGLTTMPKNVVFVIDKSGSMSGRKIQQTREALIKILDDLSPRDQFNLIVFSTEATQWRPSLVPASAENVNKARSFAAGIQALGGTNINDAMLMAVQLLDSSNQEERLPEGSVSLIILLTDGDPTVGETNPRSIQNNVREAVSGRYSLFCLGFGFDVSYAFLEKLALDNGGLARRIHEDSDSALQLQDFYQEVANPLLTAVTFEYPSNAVEEVTQNNFRLLFKGSEMVVAGKLQDRGPDVLTATVSGKLPTQNITFQTESSVAEQEAEFQSPKYIFHNFMERLWAYLTIQQLLEQTVSASDADQQALRNQALNLSLAYSFVTPLTSMVVTKPDDQEQSQVAEKPMEGESRNRNVHSGSTFFKYYLQGAKIPKPEASFSPRRGWNRQAGAAGSRMNFRPGVLSSRQLGLPGPPDVPDHAAYHPFRRLAILPASAPPATSNPDPAVSRVMNMKIEETTMTTQTPAPIQAPSAILPLPGQSVERLCVDPRHRQGPVNLLSDPEQGVEVTGQYEREKAGFSWIEVTFKNPLVWVHASPEHVVVTRNRRSSAYKWKETLFSVMPGLKMTMDKTGLLLLSDPDKVTIGLLFWDGRGEGLRLLLRDTDRFSSHVGGTLGQFYQEVLWGSPAASDDGRRTLRVQGNDHSATRERRLDYQEGPPGVEISCWSVEL
percentage of EdU-negative [1, 3]: 4.26 ± 0.31% | percentage of EdU-negative [1, 4]: 5.26 ± 0.59% | percentage of EdU-negative [1, 5]: 4.65 ± 0.14% | percentage of EdU-negative [1, 6]: 6.25 ± 0.86% | percentage of EdU-negative [1, 7]: 5.26 ± 0.17% | percentage of EdU-negative [1, 8]: 5.86 ± 0.71% | percentage of EdU-negative [2, 3]: 26.1 ± 0.6% | percentage of EdU-negative [2, 4]: 24.7 ± 1.9% | percentage of EdU-negative [2, 5]: 25.598 ± 0.0074% | percentage of EdU-negative [2, 6]: 27.8 ± 0.46% | percentage of EdU-negative [2, 7]: 22.7 ± 1.4% | percentage of EdU-negative [2, 8]: 24.7 ± 1.2%

MGCRAASGLLPGVAVVLLLLLQSTQSVYIQYQGFRVQLESMKKLSDLEAQWAPSPRLQAQSLLPAVCHHPALPQDLQPVCASQEASSIFKTLRTIANDDCELCVNVACTGCL
percentage of EdU-negative [1, 9]: 4.91 ± 1.5% | percentage of EdU-negative ([1]; protein concentration 0.225 µM): 9.77 ± 1.3% | percentage of EdU-negative [2, 9]: 27.3 ± 2.2% | percentage of EdU-negative ([2]; protein concentration 0.225 µM): 27.8 ± 1.8%

MALGLLIAVPLLLQAAPRGAAHYEMMGTCRMICDPYTAAPGGEPPGAKAQPPGPSTAALEVMQDLSANPPPPFIQGPKGDPGRPGKPGPRGPPGEPGPPGPRGPPGEKGDSGRPGLPGLQLTAGTASGVGVVGGGAGVGGDSEGEVTSALSATFSGPKIAFYVGLKSPHEGYEVLKFDDVVTNLGNHYDPTTGKFSCQVRGIYFFTYHILMRGGDGTSMWADLCKNGQVRASAIAQDADQNYDYASNSVVLHLDSGDEVYVKLDGGKAHGGNNNKYSTFSGFLLYPD [Q7Z5L3]
percentage of EdU-negative [1, 10]: 5.39 ± 0.86% | percentage of EdU-negative [1, 11]: 5.7 ± 1.1% | percentage of EdU-negative [2, 10]: 22.8 ± 1.6% | percentage of EdU-negative [2, 11]: 30 ± 0.7%

MAFDVSCFFWVVLFSAGCKVITSWDQMCIEKEANKTYNCENLGLSEIPDTLPNTTEFLEFSFNFLPTIHNRTFSRLMNLTFLDLTRCQINWIHEDTFQSHHQLSTLVLTGNPLIFMAETSLNGPKSLKHLFLIQTGISNLEFIPVHNLENLESLYLGSNHISSIKFPKDFPARNLKVLDFQNNAIHYISREDMRSLEQAINLSLNFNGNNVKGIELGAFDSTIFQSLNFGGTPNLSVIFNGLQNSTTQSLWLGTFEDIDDEDISSAMLKGLCEMSVESLNLQEHRFSDISSTTFQCFTQLQELDLTATHLKGLPSGMKGLNLLKKLVLSVNHFDQLCQISAANFPSLTHLYIRGNVKKLHLGVGCLEKLGNLQTLDLSHNDIEASDCCSLQLKNLSHLQTLNLSHNEPLGLQSQAFKECPQLELLDLAFTRLHINAPQSPFQNLHFLQVLNLTYCFLDTSNQHLLAGLPVLRHLNLKGNHFQDGTITKTNLLQTVGSLEVLILSSCGLLSIDQQAFHSLGKMSHVDLSHNSLTCDSIDSLSHLKGIYLNLAANSINIISPRLLPILSQQSTINLSHNPLDCTCSNIHFLTWYKENLHKLEGSEETTCANPPSLRGVKLSDVKLSCGITAIGIFFLIVFLLLLAILLFFAVKYLLRWKYQHI
percentage of EdU-negative [1, 9]: 5.21 ± 0.11% | percentage of EdU-negative ([1]; protein concentration 0.225 µM): 7.06 ± 0.86% | percentage of EdU-negative [2, 9]: 27.1 ± 4.8% | percentage of EdU-negative ([2]; protein concentration 0.225 µM): 29.8 ± 3.2%
